Data on two sequences can be found in paper PMC11270970.

For the data set, the target named is nucleolin (NuP), recombinant human (Homo sapiens) (UniProt P19338). Briefly: SPR. The conditions noted are these: SPR with recombinant human nucleolin, buffer, salt, pH and temperature not given in the material.
nucleolin (NuP), recombinant human (Homo sapiens), sequence (P19338 2-710): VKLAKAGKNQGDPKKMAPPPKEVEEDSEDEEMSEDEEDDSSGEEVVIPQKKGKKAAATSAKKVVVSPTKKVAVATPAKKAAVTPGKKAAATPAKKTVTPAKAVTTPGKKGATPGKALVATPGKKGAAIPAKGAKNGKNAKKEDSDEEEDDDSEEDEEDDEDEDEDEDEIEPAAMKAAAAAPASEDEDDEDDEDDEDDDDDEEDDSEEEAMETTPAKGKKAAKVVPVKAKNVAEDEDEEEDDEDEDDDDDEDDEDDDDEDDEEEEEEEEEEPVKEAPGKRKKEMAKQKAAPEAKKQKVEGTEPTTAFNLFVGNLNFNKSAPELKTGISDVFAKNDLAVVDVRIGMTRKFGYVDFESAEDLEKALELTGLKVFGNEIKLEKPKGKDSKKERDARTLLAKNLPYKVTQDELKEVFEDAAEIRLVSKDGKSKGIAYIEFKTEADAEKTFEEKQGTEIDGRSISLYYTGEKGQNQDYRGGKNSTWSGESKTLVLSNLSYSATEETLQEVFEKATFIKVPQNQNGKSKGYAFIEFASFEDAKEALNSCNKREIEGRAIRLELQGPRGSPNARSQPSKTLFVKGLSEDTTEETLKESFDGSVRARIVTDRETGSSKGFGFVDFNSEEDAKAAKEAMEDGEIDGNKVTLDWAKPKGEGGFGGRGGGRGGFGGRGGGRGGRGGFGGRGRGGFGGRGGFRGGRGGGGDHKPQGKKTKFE

Turning to GGTGGTGGTGGTTGTGGTGGTGGTGG [AS1411], the Kd (commonly the concentration at which binding is half-saturated) (1:1 Langmuir fit, 5' CH2CH2-(OCH2CH2)3-O linker as listed in Table S1, 5' amino form also listed, form used in SPR not stated) worked out at 3.77 nM. Turning to “GGTGGTGGTGGTTGTGGTGGTGGTGG [AS-TP (TP-amino-AS1411, 6a)]”, the Kd (5' triptolide via acetal ester linker - amino-CH2CH2-(OCH2CH2)3-O-) was found to be 4.03 nM.
